This note sets out measurements from PMC4674064, “Newly Characterized Region of CP190 Associates with Microtubules and Mediates Proper Spindle Morphology in Drosophila Stem Cells” (PLoS ONE, 2015).

This data set deals with the molecule itself. The data set is described as follows: SEC-MALS; Superdex 200 10/300 GL, 25 mM Tris pH 7.4, 0.2 g/L NaN2, 0.5 mL/min.

B1: Drosophila melanogaster CP190 BTB domain (residues 1-135) (domain or fragment, UniProt Q24478 1-135, looked up)
chain: MGEVKSVKVDNWGVFFLQKLQNFFNKTDYCDLTLQFRDNSQLKVHRLVLSACTDYFNVLEQTCEIVDDALIMPNEFQADVVVPIVNFMYTGTLEFELKMYGKLLRTAKEMNMTVLLKLLEAHRRTMENVNRQQRP
notes: CP190 (centrosome associated protein at 190 kDa), Drosophila melanogaster, BTB domain, residues 1-135; the final crystal model holds residues 2-121; Native and selenomethionine-substituted protein were crystallised; also called BTB-WT; source: E. coli BL21 DE3 (pLysS), purified (Ni-NTA, thrombin digestion, Q-sepharose ion exchange); not shown: His6, N-terminal, cleaved
Turning to B1, the “stoichiometry N” value turned out to be 2.
